Measured values published in patent publication US20130130922A1, “ANALYSIS OF METHYLATION SITES” (Centre for Addiction and Mental Health, priority 2011, published 2013).

Test system: Control-H reference system (specific and nonspecific 200 bp DNA fragments from pBR322)
Assay: mTAG labeling, biotinylation, capture on streptavidin beads and multiplex real-time PCR of Control-H reference system
Details: Control-H alone; Ado-11-amine cofactor; 228 nM enzyme; 37° C. 2 hours; percentage of material used for bead separation

B1: HpaII (Q104A/N335A): His6-tagged M.HpaII C5 DNA methyltransferase (CCGG target site) double-alanine mutant Q104A/N335A (protein, UniProt P15446 1-358, looked up, variant Q104A N335A)
Type II methyltransferase …: MKDVLDDNLLEEPAAQYSLFEPESNPNLREKFTFIDLFAGIGGFRIAMQNLGGKCIFSSEWDEQAQKTYEANFGDLPYGDITLEETKAFIPEKFDILCAGFPCAAFSIAGKRGGFEDTRGTLFFDVAEIIRRHQPKAFFLENVKGLKNHDKGRTLKTILNVLREDLGYFVPEPAIVNAKNFGVPQNRERIYIVGFHKSTGVNSFSYPEPLDKIVTFADIREEKTVPTKYYLSTQYIDTLRKHKERHESKGNGFGYEIIPDDGIANAIVVGGMGRERNLVIDHRITDFTPTTNIKGEVNREGIRKMTPREWARLQGFPDSYVIPVSDASAYKQFGASVAVPAIQATGKKILEKLGNLYD
modifications: His6 tag
level of nonspecific probe found on beads: 5-6% | yield of unmethylated (specific) probe recovered on beads: 50-60%
